Key:
[1] = biological target: T1, human IL-33 (R&D Systems, # 3625-IL-010/CF) (human, UniProt O95760 112-270, biotinylated in the blocking ELISA of Example 3 (sites not given)); assay: cell-based or functional assay
T1 sequence (looked up): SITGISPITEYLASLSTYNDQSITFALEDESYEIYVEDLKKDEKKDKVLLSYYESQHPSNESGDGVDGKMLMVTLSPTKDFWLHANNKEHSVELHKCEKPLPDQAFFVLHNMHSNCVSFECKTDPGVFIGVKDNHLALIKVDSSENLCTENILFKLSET

[2] = biological target: T2, monkey IL-33 expressed with C-terminal hexahistidine tag (MfIL-33-6His) (cynomolgus monkey (M. fascicularis)); assay: cell-based or functional assay
T2 chain: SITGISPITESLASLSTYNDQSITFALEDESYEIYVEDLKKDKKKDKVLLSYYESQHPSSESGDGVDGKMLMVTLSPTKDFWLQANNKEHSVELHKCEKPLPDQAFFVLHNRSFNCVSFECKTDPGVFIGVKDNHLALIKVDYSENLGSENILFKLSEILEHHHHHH

[3] = biological target: T1, human IL-33 (R&D Systems, # …); assay: cell-based or functional assay; remark: listed apart in the source
[4] = biological target: T1, human IL-33 (R&D Systems, # …); assay: SPR (Biacore T-200), 37 C; Fc fusion captured by anti-Fc antibody, IL-33 injected
Experimental: (§1) The Biacore sensor surface was first derivatized by amine coupling a polyclonal rabbit anti-mouse antibody (GE, # BR-1008-38) or with a monoclonal mouse anti-human Fc antibody (GE, # BR-1008-39) to capture IL-33 Trap and receptor proteins with a C-terminal mouse IgG2a Fc tag or a C-terminal human IgG1 Fc tag, respectively. Kinetic experiments were carried out in 0.01 M HEPES pH 7.4, 0.15 M NaCl, 3 mM EDTA, and 0.005% v/v Surfactant Tween-20 (HBST running buffer). Different concentrations of human IL-33, mouse IL-33 or MfIL-33-6His prepared in HBST running buffer (ranging from 60 nM to 27.4 pM, 3-fold dilutions, for Trap proteins and ranging from 60 nM to 0.25 nM, 3-fold dilutions, for ST2 receptor proteins) were injected over the captured IL-33 Trap and receptor protein surfaces at a flow rate of 50 μL/minute. Association of different IL-33 proteins to the different capture surfaces was monitored for 7 minutes for Trap proteins or 4 minutes for ST2 receptor proteins and their dissociation in HBST running buffer was monitored for 14 minutes for Trap proteins or 8 minutes for ST2 receptor proteins. Kinetic association (ka) and dissociation (kd) rate constants were determined by fitting the real-time binding sensorgrams to a 1:1 binding model using Scrubber 2.0c curve-fitting software. Binding dissociation equilibrium constants (KD) and dissociative half-lives (t½) were calculated from the kinetic rate constants as: […]

[5] = biological target: T3, mouse IL-33 (R&D Systems, # 3626-ML-010/CF) (mouse, UniProt Q8BVZ5 109-266); assay: SPR (Biacore T-200), 37 C; Fc fusion captured by anti-Fc antibody, mouse IL-33 injected
T3 construct: Commercial protein; also called mIL-33; mIL33
T3 sequence (looked up): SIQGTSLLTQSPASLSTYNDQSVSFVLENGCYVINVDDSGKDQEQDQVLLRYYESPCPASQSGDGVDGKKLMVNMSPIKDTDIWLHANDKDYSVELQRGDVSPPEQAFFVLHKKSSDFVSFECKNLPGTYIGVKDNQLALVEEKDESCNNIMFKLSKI
Experimental: as §1

[6] = biological target: T2, monkey IL-33 expressed with C-terminal …; assay: SPR (Biacore T-200), 25 C; Fc fusion captured by anti-Fc antibody, MfIL-33-6His injected
Experimental: as §1

[7] = biological target: T1, human IL-33 (R&D Systems, # …); assay: competition ELISA; antagonist pre-mixed with 20 pM biotin-hIL-33, binding to plate-coated human ST2-Fc; highest concentration tested
Experimental: The ability of exemplary IL-33 antagonists of the invention to block human IL-33 (hIL-33) binding to the human ST2 receptor was measured using a competition sandwich ELISA. A portion of human ST2 protein ecto domain that was expressed with a C-terminal mouse Fc tag (SEQ ID NO:2) was coated at a concentration of 1 μg/mL in PBS buffer on a 96-well microtiter plate overnight at 4° C. […] Biotinylated hIL-33 protein (R&D systems, #3625-IL/CF) (biot-hIL-33) was added to achieve a constant final concentration of 20 pM to serial dilutions of IL-33 antagonists ranging from 0 to 100 nM. The mixture was incubated for 1 hour at room temperature (RT) before transfer to the hST2-hFc coated microtiter plates. After incubation for 1 hour at RT, the wells were then washed, and plate-bound biot-hIL-33 was detected with HRP-conjugated streptavidin (Thermo Scientific, # N200). All samples were developed with a TMB solution (BD biosciences, # 51-2607KC) to produce a colorimetric reaction and then quenched by acidification with 1M sulfuric acid before measuring absorbance at 450 nm on a Victor X5 plate reader (PerkinElmer). Data analysis was performed using a sigmoidal dose-response model within Prism™ software. […] Maximum blocking values represent the ability of the antagonists to block IL-33 binding relative to baseline. The absorbance measured at the constant amount of hIL-33 on the dose curve was defined as 0% blocking and the absorbance with no added IL-33 was defined as 100% blocking. The absorbance values of the wells containing the highest concentration tested for each antagonist were used to determine the maximum blocking percent.

IC50 (M), inhibition of 5 pM human IL-33 activation of HEK293/hST2/NFkB-luciferase cells [1]: 1.3e-12 M
IC50 (M), inhibition of 20 pM human IL-33 activation of HEK293/hST2/NFkB-luciferase cells [1]: 1.3e-11 M
IC50 (M), inhibition of 3 pM monkey IL-33 activation of HEK293/hST2/NFkB-luciferase cells [2]: 4.7e-11 M
IC50 (M), inhibition of 5 pM monkey IL-33 activation of HEK293/hST2/NFkB-luciferase cells [2]: 1.3e-12 M
IC50 (M), blocking of IL-33 induced activation of human basophils (CD203c), donor 655675 [3]: 1.9e-11 M
IC50 (M), blocking of IL-33 induced activation of human basophils (CD203c), donor 655676 [3]: 1.51e-11 M
IC50 (M), blocking of IL-33 induced activation of human basophils (CD203c), donor 655685 [3]: 2.3e-11 M
IC50 (M), blocking of IL-33 induced activation of human basophils (CD203c), donor 655686 [3]: 2.09e-11 M
IC50 (M), blocking of IL-33 induced activation of human basophils (CD203c), donor 698846 [3]: 3.6e-11 M
IC50 (M), blocking of IL-33 induced activation of human basophils (CD203c), donor 698847 [3]: 1.11e-11 M
60 nM Human IL-33 Bound (RU) [4]: 28 RU
Kd [4]: 0.00111 nM
koff [4]: 2.02e-05 s⁻¹
kon [4]: 1.82e+07 M⁻¹ s⁻¹
t1/2 [4]: 9.55 h
60 nM Mouse IL-33 Bound (RU) [5]: 21 RU
Kd [5]: 0.0933 nM
koff [5]: 0.000317 s⁻¹
kon [5]: 3.39e+06 M⁻¹ s⁻¹
t1/2 [5]: 0.6 h
60 nM Monkey IL-33 Bound (RU) [6]: 28 RU
Kd [6]: 0.00313 nM
koff [6]: 4.09e-05 s⁻¹
kon [6]: 1.31e+07 M⁻¹ s⁻¹
t1/2 [6]: 4.7 h
% Maximum blocking [7]: 97%
B1: hST2-hIL1RAcP-mFc (Fc fusion)
chain: KFSKQSWGLENEALIVRCPRQGKPSYTVDWYYSQTNKSIPTQERNRVFASGQLLKFLPAAVADSGIYTCIVRSPTFNRTGYANVTIYKKQSDCNVPDYLMYSTVSGSEKNSKIYCPTIDLYNWTAPLEWFKNCQALQGSRYRAHKSFLVIDNVMTEDAGDYTCKFIHNENGANYSVTATRSFTVKDEQGFSLFPVIGAPAQNEIKEVEIGKNANLTCSACFGKGTQFLAAVLWQLNGTKITDFGEPRIQQEEGQNQSFSNGLACLDMVLRIADVKEEDLLLQYDCLALNLHGLRRHTVRLSRKNPIDHHSSERCDDWGLDTMRQIQVFEDEPARIKCPLFEHFLKFNYSTAHSAGLTLIWYWTRQDRDLEEPINFRLPENRISKEKDVLWFRPTLLNDTGNYTCMLRNTTYCSKVAFPLEVVQKDSCFNSPMKLPVHKLYIEYGIQRITCPNVDGYFPSSVKPTITWYMGCYKIQNFNNVIPEGMNLSFLIALISNNGNYTCVVTYPENGRTFHLTRTLTVKVVGSPKNAVPPVIHSPNDHVVYEKEPGEELLIPCTVYFSFLMDSRNEVWWTIDGKKPDDITIDVTINESISHSRTEDETRTQILSIKKVTSEDLKRSYVCHARSAKGEVAKAAKVKQKVPAPRYTVESGEPRGPTIKPCPPCKCPAPNLLGGPSVFIFPPKIKDVLMISLSPIVTCVVVDVSEDDPDVQISWFVNNVEVHTAQTQTHREDYNSTLRVVSALPIQHQDWMSGKEFKCKVNNKDLPAPIERTISKPKGSVRAPQVYVLPPPEEEMTKKQVTLTCMVTDFMPEDIYVEWTNNGKTELNYKNTEPVLDSDGSYFMYSKLRVEKKNWVERNSYSCSVVHEGLHNHHTTKSFSRTPGK
notes: also called third IL-33 antagonist; human IL-33 Trap

Source: patent US20170204158A1 (Regeneron, published 2017)
